Target: the molecule itself
Assay: crystal structure

Protein	stoichiometry N
truncated C-terminal StrepII-tagged ScSbtB protein (SbtB-Δ104) (domain or fragment, Synechocystis sp. PCC 6803, UniProt P73954 1-104, looked up) MAKPANKLVIVTEKILLKKIAKIIDESGAKGYTVMNTGGKGSRNVRSSGQPNTSDIEANIKFEILTETREMAEEIADRVAVKYFNDYAGIIYICSAEVLYGHTF	3
C-terminal StrepII-tagged ScSbtB C105A+C110A variant (natural protein, Synechocystis sp. PCC 6803) MAKPANKLVIVTEKILLKKIAKIIDESGAKGYTVMNTGGKGSRNVRSSGQPNTSDIEANIKFEILTETREMAEEIADRVAVKYFNDYAGIIYICSAEVLYGHTFAGPEGA	3
